The record followed here is patent publication US20110098217A1 (INDIANA UNIVERSITY RESEARCH AND TECHNOLOGY, published 2011).

In assay [1] the target is T1, human glucagon receptor (human, UniProt P47871 26-477). As to the kind of experiment: cell-based or functional assay.
For assay [2], the target named is T1, human glucagon receptor. As to the kind of experiment: cell-based or functional assay. The source holds these as a separate data set.
Assay [3] concerns the target T1, human glucagon receptor. As to the kind of experiment: SPA competition vs 125I-glucagon, receptor membranes.
The target of assay [4] is T2, human GLP-1 receptor (human, UniProt P43220 24-463). As to the kind of experiment: cell-based or functional assay.
The target in assay [5] is T2, human GLP-1 receptor. As to the kind of experiment: cell-based or functional assay. The source holds these as a separate data set.
The target in assay [6] is T1, human glucagon receptor. As to the kind of experiment: cell-based or functional assay. This is another data set of the same source.

Where “and” joins values, the source holds several entries; their conditions need not be identical. Identical values can stand only once. Like-named read-outs stand apart in the source and are kept apart here. Bridge positions count the residues as written; N and C are the ends. Square brackets hold non-standard residues; d marks the D form. Primed or numbered codes have the meaning given here. Ends that are not written are not given here. MCA = alpha-methylhydrocinnamic acid (2-methyl-3-phenylpropanoic acid); PEG 20 kDa″ = 20 kDa polyethylene glycol (PEG); Abu(4-SO3H) = N[C@@H](CCS(=O)(=O)O)C(=O)O; PEG 20 kDa = 20 kDa polyethylene glycol; PhLac = O=C(O)[C@@H](O)Cc1ccccc1

T1 sequence (P47871 26-477): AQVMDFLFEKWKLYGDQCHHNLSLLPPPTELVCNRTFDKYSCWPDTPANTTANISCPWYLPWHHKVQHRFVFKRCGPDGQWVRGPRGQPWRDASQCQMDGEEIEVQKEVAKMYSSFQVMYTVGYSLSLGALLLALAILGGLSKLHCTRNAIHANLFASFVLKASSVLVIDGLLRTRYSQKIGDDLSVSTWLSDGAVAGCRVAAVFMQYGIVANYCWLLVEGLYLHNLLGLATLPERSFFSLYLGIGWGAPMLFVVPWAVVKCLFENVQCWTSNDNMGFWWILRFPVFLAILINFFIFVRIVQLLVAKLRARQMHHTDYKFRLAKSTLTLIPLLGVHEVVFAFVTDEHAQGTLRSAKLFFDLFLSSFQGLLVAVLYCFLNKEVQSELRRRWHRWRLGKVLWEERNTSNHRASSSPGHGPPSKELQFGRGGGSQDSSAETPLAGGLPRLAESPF

B1: [PLA6, K12E16(lactam), GLP(23-32)]G(6-29) (peptide)
peptide: [PhLac]TSDYSKYLDEQAAKDFIAWLMDT-NH2
modifications: lactam 7-11; N-terminus assumed
SMILES: CC[C@H](C)[C@H](NC(=O)[C@H](Cc1ccccc1)NC(=O)[C@H](CC(=O)O)NC(=O)[C@H](CCCCN)NC(=O)[C@H](C)NC(=O)[C@H](C)NC(=O)[C@H](CCC(N)=O)NC(=O)[C@@H]1CCC(=O)NCCCC[C@H](NC(=O)[C@H](CO)NC(=O)[C@H](Cc2ccc(O)cc2)NC(=O)[C@H](CC(=O)O)NC(=O)[C@H](CO)NC(=O)[C@@H](NC(=O)[C@@H](O)Cc2ccccc2)[C@@H](C)O)C(=O)N[C@@H](Cc2ccc(O)cc2)C(=O)N[C@@H](CC(C)C)C(=O)N[C@@H](CC(=O)O)C(=O)N1)C(=O)N[C@@H](C)C(=O)N[C@@H](Cc1c[nH]c2ccccc12)C(=O)N[C@@H](CC(C)C)C(=O)N[C@@H](CCSC)C(=O)N[C@@H](CC(=O)O)C(=O)N[C@H](C(N)=O)[C@@H](C)O
Turning to B1, the “Glucagon antagonism IC50 (inhibit 0.2-0.8 nM glucagon)” value in the assay with human glucagon receptor [1] turned out to be 169 nM. Take [PhLac]TC(PEG 20 kDa)EYSKYLDSRRAQDFVQWLMNT-NH2 [[PLA^6, C^8(20kDaPEG), E^9]Glucagon(aa6-29)-NH2]: the “IC50 (cAMP, inhibit 0.2 mM Glucagon)” value with human glucagon receptor [2] is 236 nM and 92 nM. In the assay with human glucagon receptor [3], this molecule gave a half-inhibitory concentration (IC50) of 303 nM. [MCA]TSEYSKYLDSRRAQDFVC(PEG 20 kDa)WLMNT-NH2 [[MCA^6, E^9, C^24(20kDaPEG)]Glucagon(aa6-29)-NH2] showed an IC50 with human glucagon receptor [3] of 208 nM. Take [PhLac]TSEYSKYLDSRRAQDFVC(PEG 1.2 kDa)WLMNT-NH2 [[PLA^6, E^9,C^24(1.2 kDaPEG)]Glucagon(aa6-29)-NH2]: in the assay with human glucagon receptor [2], the “IC50 (cAMP, inhibit 0.2 mM Glucagon)” value is 18 nM. The IC50 with human glucagon receptor [3] was 4.7 nM. As to [PhLac]TSEYC(PEG 20 kDa)KYLDSRRAQDFVQWLMNT-NH2 [[PLA^6, E^9, C^11(20kDaPEG)]Glucagon(aa6-29)-NH2], the “IC50 (cAMP, inhibit 0.2 mM Glucagon)” value in the assay with human glucagon receptor [2] came to 664 nM. This molecule also came in with a half-inhibitory concentration (IC50) in the assay with human glucagon receptor [3] of 776 nM. Take [PhLac]TSEYSKYLDSRRAQDFVC(PEG 20 kDa)WLMNT-NH2 [[PLA^6, E^9, C^24(20kDaPEG)]Glucagon(aa6-29)-NH2]: the “IC50 (cAMP, inhibit 0.2 mM Glucagon)” value with human glucagon receptor [2] came to 126 nM. For the same molecule, the IC50 in the assay with human glucagon receptor [3] is 90 nM.

B2: [PLA6, E16K20(lactam), GLP(23-32)]G(6-29) (peptide)
peptide: [PhLac]TSDYSKYLDEQAAKEFIAWLMDT-NH2
modifications: lactam 11-15; N-terminus assumed
SMILES: CC[C@H](C)[C@H](NC(=O)[C@H](Cc1ccccc1)NC(=O)[C@H](CCC(=O)O)NC(=O)[C@@H]1CCCCNC(=O)CC[C@H](NC(=O)[C@H](CC(=O)O)NC(=O)[C@H](CC(C)C)NC(=O)[C@H](Cc2ccc(O)cc2)NC(=O)[C@H](CCCCN)NC(=O)[C@H](CO)NC(=O)[C@H](Cc2ccc(O)cc2)NC(=O)[C@H](CC(=O)O)NC(=O)[C@H](CO)NC(=O)[C@@H](NC(=O)[C@@H](O)Cc2ccccc2)[C@@H](C)O)C(=O)N[C@@H](CCC(N)=O)C(=O)N[C@@H](C)C(=O)N[C@@H](C)C(=O)N1)C(=O)N[C@@H](C)C(=O)N[C@@H](Cc1c[nH]c2ccccc12)C(=O)N[C@@H](CC(C)C)C(=O)N[C@@H](CCSC)C(=O)N[C@@H](CC(=O)O)C(=O)N[C@H](C(N)=O)[C@@H](C)O
For B2, the “GLP-1 agonism EC50” value in the assay with human GLP-1 receptor [4] came to 51.2 nM. Take C(PEG 20 kDa)FTSEYSKYLDSRRAQDFVQWLMNT-NH2 [[C^5(20kDaPEG), E^9]Glucagon(aa5-29)-NH2]: the “IC50 (cAMP, inhibit 0.2 mM Glucagon)” value in the assay with human glucagon receptor [2] was 976 nM. The same molecule registered a concentration for half-maximal inhibition (IC50) in the assay with human glucagon receptor [3] of 331 nM. With C(PEG 1.2 kDa)FTSEYSKYLDSRRAQDFVQWLMNT-NH2 [[C^5(1.2kDaPEG), E^9]Glucagon(aa5-29)-NH2], the “IC50 (cAMP, inhibit 0.2 mM Glucagon)” value with human glucagon receptor [2] is 2280 nM. Besides, the 50% inhibitory concentration (IC50) with human glucagon receptor [3] came to 1080 nM. Regarding [PhLac]TSEYSKYLDERRAKDFVC(PEG 20 kDa″)WLMNT-NH2 (lactam 11-15) [[PLA6, E9,E16K20(Lactam), C24(20 kDa)]G(6-29)], in the assay with human GLP-1 receptor [5], the “GLP-1 agonism EC50” value turned out to be 825 nM.

B3: [H1A2E3, E9, E16K20(Lactam), GLP(23-32)]G(1-29) (peptide)
peptide: HAEGTFTSEYSKYLDEQAAKEFIAWLMDT-NH2
modifications: lactam 16-20; N-terminus assumed
SMILES: CC[C@H](C)[C@H](NC(=O)[C@H](Cc1ccccc1)NC(=O)[C@H](CCC(=O)O)NC(=O)[C@@H]1CCCCNC(=O)CC[C@H](NC(=O)[C@H](CC(=O)O)NC(=O)[C@H](CC(C)C)NC(=O)[C@H](Cc2ccc(O)cc2)NC(=O)[C@H](CCCCN)NC(=O)[C@H](CO)NC(=O)[C@H](Cc2ccc(O)cc2)NC(=O)[C@H](CCC(=O)O)NC(=O)[C@H](CO)NC(=O)[C@@H](NC(=O)[C@H](Cc2ccccc2)NC(=O)[C@@H](NC(=O)CNC(=O)[C@H](CCC(=O)O)NC(=O)[C@H](C)NC(=O)[C@@H](N)Cc2c[nH]cn2)[C@@H](C)O)[C@@H](C)O)C(=O)N[C@@H](CCC(N)=O)C(=O)N[C@@H](C)C(=O)N[C@@H](C)C(=O)N1)C(=O)N[C@@H](C)C(=O)N[C@@H](Cc1c[nH]c2ccccc12)C(=O)N[C@@H](CC(C)C)C(=O)N[C@@H](CCSC)C(=O)N[C@@H](CC(=O)O)C(=O)N[C@H](C(N)=O)[C@@H](C)O
Regarding B3, the “GLP-1 agonism EC50” value with human GLP-1 receptor [4] was determined as 0.017 nM. The “Glucagon antagonism IC50 (inhibit 0.2-0.8 nM glucagon)” value with human glucagon receptor [1] was determined as 2150 nM.

B4: [desHis^1, Leu^4, hCys^9(SO3-), Phe^25, Leu^27] Glucagon-NH2 (peptide)
peptide: SQLTFTS[Abu(4-SO3H)]YSKYLDSRRAQDFVQFLLNT-NH2
modifications: N-terminus assumed
SMILES: CC(C)C[C@H](NC(=O)[C@H](Cc1ccc(O)cc1)NC(=O)[C@H](CCCCN)NC(=O)[C@H](CO)NC(=O)[C@H](Cc1ccc(O)cc1)NC(=O)[C@H](CCS(=O)(=O)O)NC(=O)[C@H](CO)NC(=O)[C@@H](NC(=O)[C@H](Cc1ccccc1)NC(=O)[C@@H](NC(=O)[C@H](CC(C)C)NC(=O)[C@H](CCC(N)=O)NC(=O)[C@@H](N)CO)[C@@H](C)O)[C@@H](C)O)C(=O)N[C@@H](CC(=O)O)C(=O)N[C@@H](CO)C(=O)N[C@@H](CCCNC(=N)N)C(=O)N[C@@H](CCCNC(=N)N)C(=O)N[C@@H](C)C(=O)N[C@@H](CCC(N)=O)C(=O)N[C@@H](CC(=O)O)C(=O)N[C@@H](Cc1ccccc1)C(=O)N[C@H](C(=O)N[C@@H](CCC(N)=O)C(=O)N[C@@H](Cc1ccccc1)C(=O)N[C@@H](CC(C)C)C(=O)N[C@@H](CC(C)C)C(=O)N[C@@H](CC(N)=O)C(=O)N[C@H](C(N)=O)[C@@H](C)O)C(C)C
For B4, in the assay with human glucagon receptor [6], the “cAMP Induction EC50” value stood at 1610 nM and the “cAMP Inhibition IC50” value was found to be 4460 nM.

On to [PhLac]TSDYSKYLDERRAQDFVQWLMDTGPSSGAPPPSC(PEG 20 kDa)-NH2 (lactam 7-11) [[PLA6, K12E16(Lactam), D28,CEX-C40(20 kDa)]G(6-40)], for which, in the assay with human GLP-1 receptor [5], the “GLP-1 agonism EC50” value is 657 nM.

B5: [A2E3, E9, E16K20(Lactam), GLP(23-32)]G(2-29) (peptide)
peptide: AEGTFTSEYSKYLDEQAAKEFIAWLMDT-NH2
modifications: lactam 15-19; N-terminus assumed
SMILES: CC[C@H](C)[C@H](NC(=O)[C@H](Cc1ccccc1)NC(=O)[C@H](CCC(=O)O)NC(=O)[C@@H]1CCCCNC(=O)CC[C@H](NC(=O)[C@H](CC(=O)O)NC(=O)[C@H](CC(C)C)NC(=O)[C@H](Cc2ccc(O)cc2)NC(=O)[C@H](CCCCN)NC(=O)[C@H](CO)NC(=O)[C@H](Cc2ccc(O)cc2)NC(=O)[C@H](CCC(=O)O)NC(=O)[C@H](CO)NC(=O)[C@@H](NC(=O)[C@H](Cc2ccccc2)NC(=O)[C@@H](NC(=O)CNC(=O)[C@H](CCC(=O)O)NC(=O)[C@H](C)N)[C@@H](C)O)[C@@H](C)O)C(=O)N[C@@H](CCC(N)=O)C(=O)N[C@@H](C)C(=O)N[C@@H](C)C(=O)N1)C(=O)N[C@@H](C)C(=O)N[C@@H](Cc1c[nH]c2ccccc12)C(=O)N[C@@H](CC(C)C)C(=O)N[C@@H](CCSC)C(=O)N[C@@H](CC(=O)O)C(=O)N[C@H](C(N)=O)[C@@H](C)O
Take B5: the “GLP-1 agonism EC50” value with human GLP-1 receptor [4] is 9.8 nM. In addition, in the assay with human glucagon receptor [1], the “Glucagon antagonism IC50 (inhibit 0.2-0.8 nM glucagon)” value turned out to be 423 nM.

As to C(PEG 5 kDa)FTSEYSKYLDSRRAQDFVQWLMNT-NH2 [[C^5(5kDaPEG), E^9]Glucagon(aa5-29)-NH2], in the assay with human glucagon receptor [2], the “IC50 (cAMP, inhibit 0.2 mM Glucagon)” value turned out to be 1610 nM. In the assay with human glucagon receptor [3], this molecule gave an IC50 of 634 nM. The corresponding values for C(PEG 3.4 kDa)FTSEYSKYLDSRRAQDFVQWLMNT-NH2 (also: dimer: Cys5 of two chains joined by 3.4 kDa PEG) [3.4kDaPEG-dimer[C^5, E^9]Glucagon(aa5-29)-NH2] are 1340 nM and 435 nM. Consider [PhLac]TC(PEG 5 kDa)EYSKYLDSRRAQDFVQWLMNT-NH2 [[PLA^6, C^8(5kDaPEG), E^9]Glucagon(aa6-29)-NH2], for which the “IC50 (cAMP, inhibit 0.2 mM Glucagon)” value in the assay with human glucagon receptor [2] stood at 216 nM. For the same molecule, the half-inhibitory concentration (IC50) in the assay with human glucagon receptor [3] stood at 948 nM.

B6: [PLA6, E16, GLP(23-32)]G(6-29) (peptide)
peptide: [PhLac]TSDYSKYLDEQAAKEFIAWLMNT-NH2
modifications: N-terminus assumed
SMILES: CC[C@H](C)[C@H](NC(=O)[C@H](Cc1ccccc1)NC(=O)[C@H](CCC(=O)O)NC(=O)[C@H](CCCCN)NC(=O)[C@H](C)NC(=O)[C@H](C)NC(=O)[C@H](CCC(N)=O)NC(=O)[C@H](CCC(=O)O)NC(=O)[C@H](CC(=O)O)NC(=O)[C@H](CC(C)C)NC(=O)[C@H](Cc1ccc(O)cc1)NC(=O)[C@H](CCCCN)NC(=O)[C@H](CO)NC(=O)[C@H](Cc1ccc(O)cc1)NC(=O)[C@H](CC(=O)O)NC(=O)[C@H](CO)NC(=O)[C@@H](NC(=O)[C@@H](O)Cc1ccccc1)[C@@H](C)O)C(=O)N[C@@H](C)C(=O)N[C@@H](Cc1c[nH]c2ccccc12)C(=O)N[C@@H](CC(C)C)C(=O)N[C@@H](CCSC)C(=O)N[C@@H](CC(N)=O)C(=O)N[C@H](C(N)=O)[C@@H](C)O
For B6, in the assay with human GLP-1 receptor [4], the “GLP-1 agonism EC50” value stood at 85.6 nM. In addition, in the assay with human glucagon receptor [1], the “Glucagon antagonism IC50 (inhibit 0.2-0.8 nM glucagon)” value worked out at 64.5 nM. For [PhLac]TC(PEG 1.2 kDa)EYSKYLDSRRAQDFVQWLMNT-NH2 [[PLA^6, C^8(1.2kDaPEG), E^9]Glucagon(aa6-29)-NH2], in the assay with human glucagon receptor [3], the IC50 was 220 nM.
